Measurements: the domain aggregation screens of Martell et al. (2025)

Assay: soluble fraction after stress (log2 fold change); higher = more stays soluble; pooled small domains, quantitative proteomics
Conditions: stress: 50 degC
In short: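 Quantitative proteomics served as the high-throughput read-out for pooled custom libraries of small protein domains. Each was stressed at 50°C. Aggregation propensity is expressed as the base-two log fold change in soluble protein after stress. A higher value means a larger share of the protein remains in solution.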

| Sequence | soluble fraction (log2) |
| --- | --- |
| HMEQYYVFFAGGMTIGTKEWYESILPENIATSYDDILEGKMMPASLEQIEFYNSHKDYDLYHLFYML | -4.11 |
| HMQIAEAESLGQRLLQQSINNIVGRDEAITEERLNRVLSQYSLTGRDELMAQIGLGNRNSSLVAKAMYDI | 0.0632 |
| HMGILPDDVKLNIKEAKKIGFPIMLKAIHGGGGRGMMIVQSEDEFADAMKITKTEAKNSFGNGDLYFEKFF | 0.238 |
| HMEPVDYEALRKELMQKVMGLFTQSRDVGIQILSSFGAKKLSDVPDDKLVAFAASVDKALAG | -0.0404 |
| HMEAEMLYQVKVKITNLVIRSGAGAIYPIVKRYASGVLPIYEEKNGYGKIAVGQWISLSPEFVERVD | -0.385 |
| HMPDAENFRYRVPYTTEQNRLQYYEGDIRAENADKARDQVMQDAQKYFAQNTAFTPNYIDTDIISLD | 0.034 |
| HMRILDFPALKTEFDQLTKDLMAKYPEDGADRVRAIIETVLGPGKKVGALQPHQAELLAEVNTSLKANL | 0.153 |
| HMIFEETVFKDIAFGPKNMGLSEAEIKRRVYETAENIGLSQELMERSPFELSGGQKRRVAIAGVMAMEP | 0.192 |
| HMHQKELLNLSYKEAKRYILDDFERVFFTNLLRKTGGNVSRAAQLAQVHRKNLYVKLTELGIDPRQFG | -1.43 |
| HMNATLEQLTQREREIAVLMAEGLTNAQIGSRLNVSMASVKAHLSHIFTKLGVDNRVSAAMMVL | -0.654 |
| HMAAFGDLLSELRRDMNMTQDELAKVLFVSPGTISNYENNIHFPDVPKLKQIAQYFGVTTDYLLG | -0.405 |
| HMDSSNLSLIAGVGPTIEKKLRAAGITSWEQIAAWTEADVAKYDEELNLRGRITRDEWIEQAKELLAGKPP | -0.0993 |
| HMISDISEIEAIIVEVLKVFPNQLQEYLDGKEKILSFFVGQVMQRTKGRANPSLVNEILKEKIKN | 0.0377 |
| HMKQKAEVIFVSKTIMEALSKGVRLTPENLKSETELPIDDFYARLKELIDNGSVVESRENGESYLEAGN | 0.0977 |
| HMSQSMEVLYTDLTDKDAAAIVEKLEEEKIPYQLEDQGTTILVPPGVKYTTRLKLAAEDLPKG | 0.000352 |
| HMRWAAIMGREVAAHSTPESLVEGKLHIRTDTTAWATQLRLMSADIVRRLNEVLGEGTVLEVDVRG | -1.96 |

| Sequence | soluble fraction (log2) |
| --- | --- |
| HMFLSSEERRERIIEVLRQQDEVTVVELSHRLGVSEVTTRKDLQQLEEQGYLTRVRGGAVVSGRGQL | -0.0183 |
| HMTVNLPPKQKAAILLMSLPPEVSAQLFKELGPDEVHAITLEISKLPPISPDVRAQVIDEFLHSS | -0.152 |
| HMPNFDPSYILDFGDVIQLQLVGQKNQILEIPILRDGSVNLPDIGKIFLSGMSLEEATKIIKDTYSA | -0.679 |
| HMKNKFYEEFSDYIFKHTGIHYAEANYYQLDARINKLMKFLETSDENDVLKAIQGGAVKDQRVHQMIVDLA | -1.7 |
| HMVGVDMTVKEEVGKEGVTFTDLRPAGKVEIGNDIYDAVSNTGAFIQKGEKVKIIKYQAGQVYVEKLV | -0.121 |
| HMGTRPIQIASFSKEENAKRAVEALAKIGITAQPQKSGSATKAVWGVVANGDADLLAKIKAAGFADAYFL | 0.0667 |
| HMSGEPKNERQIEVPDVTKKSIREANNILTSEGLRLRIEGTGLAVSQKPAAGTMVEPDTIITVTFQAP | 0.35 |
| HMIMGTITKRTNPSGAIVYRAQIRIKKAGYPDFSESRTFSKKAMAVEWLKLREAELEMHPELLFR | -1.34 |
| HMEDEISLGAINVPRGSVIVTAGGARLVEGSDYTVDYYSGTVKILNKSLLDAGTPINVSLET | 0.0198 |
| HMEKEEELNSIRPDLDGNDIMEILGVPAGPKVGKAYNYLLNVRLDEGPLSRAEAISRLEAWWENQ | -0.368 |
| HMSQIQIKLDQAIMQLPEKQRFVFMLRYFEELPYEKIAQITETSIGGAKANFHQALKKMQEIIQ | -2.96 |
| HMVAVSQEEATKMALERVSGASAQDIRIQLEFDDGIQKYEGDIIYNGREYEFEIDANTGTFLEWSEERA | -0.489 |
| HMSGKGEFDQLLRSGEYVQAFQRANANGNVTLRRQQLLNLARHQAASGVGSGAIESLSTIQRI | 0.0926 |
| HMSVLQGLIESFKAGDRNLYEVAERLNVTEPFLAEALKDYRARFPKGVQVDNFWISFRPYLTIAEV | -1.41 |
| HMDKNLQYADTPKGKLREYIKNLPNGSTVNRQKLAEEFGIKKQSMGTVTEVFQEFPDKNFKFVNP | 0.119 |
